Laboratory results published in patent US20250076264A1.

Target: Human α-thrombin (Haematologic Technologies, Inc.) (human)
Assay: cell-based or functional assay

- time to completion of the fluorescence increase (dissociation of the TBA15-F9+TBA29-D9+thrombin complex) after adding 1940 nM ATIII to 200 nM complex: 600 s
Substance: Antithrombin (Grifols Therapeutics Inc.) (from UniProt P01008 33-464)
